This is an account of results in patent publication US6387642.

For series [1], the target named is Cdc2-cyclin B1 complex containing the T14A mutant of Xenopus Cdc2.
In series [2] the target is Cdc2-cyclin B1 complex containing the T14A,Y15F double mutant of Xenopus Cdc2.
Series [3] concerns the target Cdc2-cyclin B1 complex containing the T161A mutant of Xenopus Cdc2.
The target in series [4] is Cdc2-cyclin B1 complex containing the Y15F mutant of Xenopus Cdc2.
The target of series [5] is Cdc2-cyclin B1 complex containing the triple mutant T14A,Y15F,N133A of Xenopus Cdc2.
The target of series [6] is Purified recombinant Cdc2-cyclin B1 complex containing wild-type Xenopus Cdc2.
The target in series [7] is Cdc2-cyclin B1 complex containing the T14A mutant of Xenopus Cdc2 (Xenopus). Description: cell-based or functional assay.
Series [8] concerns the target Cdc2-cyclin B1 complex containing the Y15F mutant of Xenopus Cdc2 (Xenopus). The series is described as follows: cell-based or functional assay.
Series [9] concerns the target Cdc2-cyclin B1 complex containing the catalytically inactive N133A mutant of Xenopus Cdc2 (Xenopus). Description: cell-based or functional assay.
The target of series [10] is Purified recombinant Cdc2-cyclin B1 complex containing wild-type Xenopus Cdc2 (Xenopus). Description: cell-based or functional assay.
Series [11] addresses Cdc2-cyclin B1 complex containing the catalytically inactive N133A mutant of Xenopus Cdc2.

B1: Recombinant histidine-tagged Myt1 purified from baculovirus-infected Sf9 cells (enzyme, not shown: small tags and cut ends)
chain: MPVPGDDMGETPLTRTPIPMPAYFSQAEQSFSLKKRGRSLCYTLPPRPPVKSALPVSRIFPNKQRSWSQPRPQSVSFRSPQNKTPASKLYDQSKGDTFFKQCFKSICKLGRGSFGEVYKVQSLEDGCFYAVKRSVSPFRGESDRQRKLQEVRKHERVGEHPNCLRFVRAWEEKRMLYLQTELCAGSLQQHSEEFAGSLPPRRVWNITCDLLHGLKHLHDRNLLHLDIKPANVFISFSGVCKLGDFGLMVELDGTEGSGEAQEGDPRYMAPELLDGIFSKAADVFSLGMSLLEVACNMELPKGGDGWQQLRQGHLPTEFTSDLPPDFLKVLSAMLEPDYRRRATVDWLLSLPAIRNAERWRMVTLAQERTLGKIIAVYQFIVWLLSFVFQWLNRPVIGFLHYCGLRALPRSPPCSPFPNHLGESSFSSDWDDESLGDDVFEVPPSPLATHRNLTYHGQELIGRHSPDLLSRPSLGSTSTPRNLSPEFSMRKRSALPLTPNVSRISQDSTGKSRSPSTSHSSSGFVDAEVQRTLFLPRNLLGMFDDATEQ
On to B1, for which, in [1], the “phosphorylation of Cdc2 mutant, autoradiography” value (“phosphorylation of Cdc2 mutant” below) is “Myt1 can phosphorylate both the TI4A (Thr^14 changed to Ala) and Y15F (Tyr^15 changed to Phe) mutants of Cdc2”; the “reduction of Cdc2-associated histone H1 kinase activity” value (“reduction” below) is “a large reduction in activity (60 and 50%, respectively)”. Further, in [2], the “phosphorylation and H1 kinase activity” value is “the T14A, Y15F double mutant of Cdc2 was neither phosphorylated nor inactivated by Myt1”; the “phosphorylation of Cdc2 mutant” value is recorded as “the T14A,Y15F double mutant was not a substrate for Myt1”. In addition, the “phosphorylation of Cdc2 mutant” value in series [3] is on record as “Myt1 did not phosphorylate the T161A mutant of Cdc2 ( FIG. 2A ) on either tyrosine or threonine”. In [4], the “phosphorylation of Cdc2 mutant” value is “Myt1 can phosphorylate both the TI4A (Thr^14 changed to Ala) and Y15F (Tyr^15 changed to Phe) mutants of Cdc2”; the “reduction” value is “a large reduction in activity (60 and 50%, respectively)”. Besides, the “phosphorylation of Cdc2 mutant” value in series [5] was “the triple mutant T14A,Y15F, N133A was not a substrate for Myt1”. In series [6], the “phosphorylation of Cdc2, compared with single mutants” value was “wild-type Cdc2 appears to be phosphorylated more efficiently than either single mutant”; the “phosphorylation of Cdc2 in the presence of [γ-32P]ATP, autoradiography” value is recorded as “Recombinant Myt1 efficiently phosphorylated cyclin-associated, wild-type Cdc2”; the “reduction” value was “Treatment of wild-type Cdc2 with Myt1 caused a 90% reduction in its H1 kinase activity”. In the series with monomeric Cdc2, the “phosphorylation of Cdc2 in the presence of [γ-32P]ATP” value was “Myt1 did not phosphorylate monomeric Cdc2”. This molecule also gave a phosphoamino acid analysis: share of label in phosphotyrosine in series [7] of 89%. For the same molecule, in [8], the phosphoamino acid analysis: share of 32P in phosphothreonine worked out at 96%. In series [9], this molecule yielded a phosphoamino acid analysis: phosphoserine below 0.7%, a phosphoamino acid analysis: phosphothreonine of 75% and a phosphoamino acid analysis: phosphotyrosine of 24%. In addition, in series [10], the phosphoamino acid analysis: share of 32P in phosphothreonine was 77% and the phosphoamino acid analysis: share of 32P in phosphotyrosine worked out at 20%.

B2: M phase form of endogenous Xenopus Myt1 (from cytostatic factor-arrested egg extract) (protein)
chain: MPVPGDDMGETPLTRTPIPMPAYFSQAEQSFSLKKRGRSLCYTLPPRPPVKSALPVSRIFPNKQRSWSQPRPQSVSFRSPQNKTPASKLYDQSKGDTFFKQCFKSICKLGRGSFGEVYKVQSLEDGCFYAVKRSVSPFRGESDRQRKLQEVRKHERVGEHPNCLRFVRAWEEKRMLYLQTELCAGSLQQHSEEFAGSLPPRRVWNITCDLLHGLKHLHDRNLLHLDIKPANVFISFSGVCKLGDFGLMVELDGTEGSGEAQEGDPRYMAPELLDGIFSKAADVFSLGMSLLEVACNMELPKGGDGWQQLRQGHLPTEFTSDLPPDFLKVLSAMLEPDYRRRATVDWLLSLPAIRNAERWRMVTLAQERTLGKIIAVYQFIVWLLSFVFQWLNRPVIGFLHYCGLRALPRSPPCSPFPNHLGESSFSSDWDDESLGDDVFEVPPSPLATHRNLTYHGQELIGRHSPDLLSRPSLGSTSTPRNLSPEFSMRKRSALPLTPNVSRISQDSTGKSRSPSTSHSSSGFVDAEVQRTLFLPRNLLGMFDDATEQ
Regarding B2, in series [11], the “Cdc2-specific kinase activity of immunoprecipitated Myt1, relative to the interphase form” value was “The M phase form was about one-fifth as active as the Myt1 protein from either type of interphase extract”.

B3: Endogenous Xenopus Myt1 from interphase egg extract (protein)
chain: MPVPGDDMGETPLTRTPIPMPAYFSQAEQSFSLKKRGRSLCYTLPPRPPVKSALPVSRIFPNKQRSWSQPRPQSVSFRSPQNKTPASKLYDQSKGDTFFKQCFKSICKLGRGSFGEVYKVQSLEDGCFYAVKRSVSPFRGESDRQRKLQEVRKHERVGEHPNCLRFVRAWEEKRMLYLQTELCAGSLQQHSEEFAGSLPPRRVWNITCDLLHGLKHLHDRNLLHLDIKPANVFISFSGVCKLGDFGLMVELDGTEGSGEAQEGDPRYMAPELLDGIFSKAADVFSLGMSLLEVACNMELPKGGDGWQQLRQGHLPTEFTSDLPPDFLKVLSAMLEPDYRRRATVDWLLSLPAIRNAERWRMVTLAQERTLGKIIAVYQFIVWLLSFVFQWLNRPVIGFLHYCGLRALPRSPPCSPFPNHLGESSFSSDWDDESLGDDVFEVPPSPLATHRNLTYHGQELIGRHSPDLLSRPSLGSTSTPRNLSPEFSMRKRSALPLTPNVSRISQDSTGKSRSPSTSHSSSGFVDAEVQRTLFLPRNLLGMFDDATEQ
As to B3, in series [6], the “phosphorylation of Cdc2 by immunoprecipitated Myt1” value was “The immunoprecipitated Myt1 protein efficiently phosphorylated Cdc2 in both assays”; the “share of Cdc2 shifted to its Thr14-Tyr15 doubly phosphorylated form by the Myt1-depleted extract” value was “the Myt1-depleted extract phosphorylated shifted only about 20% of the substrate”; the “share of Cdc2 shifted to its Thr14-Tyr15 doubly phosphorylated form by the control extract” value was “the control extract shifted ˜80% of the Cdc2 to its Thr^14-Tyr^15 doubly phosphorylated form”; the “tyrosine phosphorylation of Cdc2 in Myt1-depleted extract, anti-phosphotyrosine immunoblot” value is “The tyrosine phosphorylation of Cdc2 was dramatically reduced in the Myt1-depleted extract”.
